Laboratory results from US20260242735A1 (UNIVERSIT T BASEL, published 2026).

B1: Refmab #5 (antibody, human IgG1, V domains shown)
VH: QVQLVQSGAEVKKPGASVKVSCKASGYTFTNYDINWVRQAPGQGLEWIGWIYPGDGSTKYNEKFKAKATLTADTSTSTAYMELRSLRSDDTAVYYCASGYEDAMDYWGQGTTVTVSS
VL: DIQMTQSPSSLSASVGDRVTINCKASQDINSYLSWFQQKPGKAPKTLIYRANRLVDGVPSRFSGSGSGQDYTLTISSLQPEDFATYYCLQYDEFPLTFGGGTKVEIK
B2: Refmab #6 (antibody, human IgG1, V domains shown)
VH: QVQLQQPGAEVVKPGASVKMSCKASGYTFTSYYIHWIKQTPGQGLEWVGVIYPGNDDISYNQKFQGKATLTADKSSTTAYMQLSSLTSEDSAVYYCAREVRLRYFDVWGQGTTVTVSS
VL: EIVLTQSPGSLAVSPGERVTMSCKSSQSVFFSSSQKNYLAWYQQIPGQSPRLLIYWASTRESGVPDRFTGSGSGTDFTLTISSVQPEDLAIYYCHQYLSSRTFGQGTKLEIK
B3: Refmab #5 (antibody, human IgG1, V domains shown)
VH: B1 VH
VL: B1 VL
B4: Refmab #6 (antibody, human IgG1, V domains shown)
VH: B2 VH
VL: B2 VL
B5: Refmab #1 (antibody, human IgG1, V domains shown)
VH: EVQLVQSGAEVKKPGSSVKVSCKASGYTITDSNIHWVRQAPGQSLEWIGYIYPYNGGTDYNQKFKNRATLTVDNPTNTAYMELSSLRSEDTAFYYCVNGNPWLAYWGQGTLVTVSS
VL: DIQLTQSPSTLSASVGDRVTITCRASESLDNYGIRFLTWFQQKPGKAPKLLMYAASNQGSGVPSRFSGSGSGTEFTLTISSLQPDDFATYYCQQTKEVPWSFGQGTKVEVK
notes: also called hP67.6; Absolute Antibody Cat. No. Ab00283-10.0
B6: Refmab #4 (antibody, human IgG1, V domains shown)
VH: QVQLVQSGAEVKKPGESVKVSCKASGYTFTNYGMNWVKQAPGQGLEWMGWINTYTGEPTYADKFQGRVTMTTDTSTSTAYMEIRNLGGDDTAVYYCARWSWSDGYYVYFDYWGQGTSVTVSS
VL: DIVMTQSPDSLTVSLGERTTINCKSSQSVLDSSTNKNSLAWYQQKPGQPPKLLLSWASTRESGIPDRFSGSGSGTDFTLTIDSPQPEDSATYYCQQSAHFPITFGQGTRLEIK

Legend:
[1] = molecular target: human CD33 P48H (human, UniProt P20138 18-364); experiment: flow cytometry on transfected cells, IgG
Target sequence in this assay (P20138 18-364 P48H limits assumed): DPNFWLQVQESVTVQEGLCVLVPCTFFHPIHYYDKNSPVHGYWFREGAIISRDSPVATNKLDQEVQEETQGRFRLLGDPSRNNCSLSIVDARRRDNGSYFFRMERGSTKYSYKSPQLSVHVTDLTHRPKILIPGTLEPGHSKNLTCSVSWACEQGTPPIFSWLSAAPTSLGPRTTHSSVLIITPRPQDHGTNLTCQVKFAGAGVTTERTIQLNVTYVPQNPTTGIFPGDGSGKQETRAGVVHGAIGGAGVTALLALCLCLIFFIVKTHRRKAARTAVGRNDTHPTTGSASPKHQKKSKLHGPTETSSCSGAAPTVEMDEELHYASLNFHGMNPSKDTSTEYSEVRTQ
Procedure: (§1) An alanine scan on human CD33 was performed to the determine the residues on CD33 that are involved in binding to the antibodies investigated. […] Briefly, a mutation library of CD33 was created by high-throughput, site-directed mutagenesis. Each residue was individually mutated to alanine, with alanine codons mutated to serine. The mutant library was arrayed in 384-well microplates and transiently transfected into HEK293-T. Following transfection, cells were incubated with the indicated antibodies (IgG or Fab) at concentrations pre-determined using an independent immunofluorescence titration curve on wild type CD33. […] Binding of each antibody to each mutant clone was determined in duplicates. For each point, background fluorescence was subtracted from the raw data, which were then normalized to antibody reactivity with wild type CD33.
(§2) Antibodies were screened for binding to the human CD33 variants in IgG format. […] For each mutation, background fluorescence was subtracted from the raw data, which were then normalized to antibody reactivity with wild-type CD33.

[2] = molecular target: human CD33 Y50R (human, UniProt P20138 18-364); experiment: flow cytometry on transfected cells, IgG
Sequence of human CD33 Y50R (P20138 18-364 Y50R limits assumed): as the sequence (P20138 18-364 P48H limits assumed) above, with H31P, Y33R counted along it
Procedure: as §1, §2

[3] = molecular target: human CD33 F44H (human, UniProt P20138 18-364); experiment: flow cytometry on transfected cells, IgG
Sequence of human CD33 F44H (P20138 18-364 F44H limits assumed): as the sequence (P20138 18-364 P48H limits assumed) above, with F27H, H31P counted along it
Procedure: as §1, §2

[4] = molecular target: human CD33 P46L (human, UniProt P20138 18-364); experiment: flow cytometry on transfected cells, IgG
Procedure: as §1, §2

[5] = molecular target: human CD33 P46D (human, UniProt P20138 18-364); experiment: flow cytometry on transfected cells, IgG
Target sequence in this assay (P20138 18-364 P46D limits assumed): as the sequence (P20138 18-364 P48H limits assumed) above, with P29D, H31P counted along it
Procedure: as §1, §2

[6] = molecular target: human CD33 T42P (human, UniProt P20138 18-364); experiment: flow cytometry on transfected cells, IgG
Sequence of human CD33 T42P (P20138 18-364 T42P limits assumed): as the sequence (P20138 18-364 P48H limits assumed) above, with T25P, H31P counted along it
Procedure: as §1, §2

[7] = molecular target: human CD33 Y49T (human, UniProt P20138 18-364); experiment: flow cytometry on transfected cells, IgG
Sequence of human CD33 Y49T (P20138 18-364 Y49T limits assumed): as the sequence (P20138 18-364 P48H limits assumed) above, with H31P, Y32T counted along it
Procedure: as §1, §2

[8] = molecular target: human CD33 I47E (human, UniProt P20138 18-364); experiment: flow cytometry on transfected cells, IgG
Sequence of human CD33 I47E (P20138 18-364 I47E limits assumed): as the sequence (P20138 18-364 P48H limits assumed) above, with I30E, H31P counted along it
Procedure: as §1, §2

[9] = molecular target: human CD33 P48Q (human, UniProt P20138 18-364); experiment: flow cytometry on transfected cells, IgG
Target sequence in this assay (P20138 18-364 P48Q limits assumed): as the sequence (P20138 18-364 P48H limits assumed) above, with H31Q counted along it
Procedure: as §1, §2

[10] = molecular target: human CD33 F44L (human, UniProt P20138 18-364); experiment: flow cytometry on transfected cells, IgG
Procedure: as §1, §2

[11] = molecular target: human CD33 Y49L (human, UniProt P20138 18-364); experiment: flow cytometry on transfected cells, IgG
Procedure: as §1, §2

[12] = molecular target: human CD33 Y50V (human, UniProt P20138 18-364); experiment: flow cytometry, transfected cells
[13] = molecular target: human CD33 P48N (human, UniProt P20138 18-364); experiment: flow cytometry, transfected cells
Sequence of human CD33 P48N (P20138 18-364 P48N limits assumed): as the sequence (P20138 18-364 P48H limits assumed) above, with H31N counted along it

[14] = molecular target: human CD33 K52D (human, UniProt P20138 18-364); experiment: flow cytometry, transfected cells
[15] = molecular target: human CD33 Y50D (human, UniProt P20138 18-364); experiment: flow cytometry, transfected cells
[16] = molecular target: human CD33 Y50H (human, UniProt P20138 18-364); experiment: flow cytometry, transfected cells
Sequence of human CD33 Y50H (P20138 18-364 Y50H limits assumed): as the sequence (P20138 18-364 P48H limits assumed) above, with H31P, Y33H counted along it

[17] = molecular target: human CD33 P48Q (human, UniProt P20138 18-364); experiment: flow cytometry, transfected cells
Target sequence in this assay (P20138 18-364 P48Q limits assumed): as the sequence (P20138 18-364 P48H limits assumed) above, with H31Q counted along it

[18] = molecular target: human CD33 Y50G (human, UniProt P20138 18-364); experiment: flow cytometry, transfected cells
Sequence of human CD33 Y50G (P20138 18-364 Y50G limits assumed): as the sequence (P20138 18-364 P48H limits assumed) above, with H31P, Y33G counted along it

[19] = molecular target: human CD33 Y50Q (human, UniProt P20138 18-364); experiment: flow cytometry, transfected cells
Sequence of human CD33 Y50Q (P20138 18-364 Y50Q limits assumed): as the sequence (P20138 18-364 P48H limits assumed) above, with H31P, Y33Q counted along it

[20] = molecular target: human CD33 Y49C (human, UniProt P20138 18-364); experiment: flow cytometry, transfected cells
[21] = molecular target: human CD33 P48F (human, UniProt P20138 18-364); experiment: flow cytometry, transfected cells
[22] = molecular target: human CD33 P48W (human, UniProt P20138 18-364); experiment: flow cytometry, transfected cells
[23] = molecular target: human CD33 P48H (human, UniProt P20138 18-364); experiment: flow cytometry, transfected cells
Target sequence in this assay (P20138 18-364 P48H limits assumed): as the sequence (P20138 18-364 P48H limits assumed) above

[24] = molecular target: human CD33 Y49P (human, UniProt P20138 18-364); experiment: flow cytometry, transfected cells
Sequence of human CD33 Y49P (P20138 18-364 Y49P limits assumed): as the sequence (P20138 18-364 P48H limits assumed) above, with H31P, Y32P counted along it

[25] = molecular target: human CD33 Y50N (human, UniProt P20138 18-364); experiment: flow cytometry, transfected cells
[26] = molecular target: human CD33 W22N (human, UniProt P20138 18-364); experiment: flow cytometry, transfected cells
[27] = molecular target: human CD33 W22L (human, UniProt P20138 18-364); experiment: flow cytometry, transfected cells
[28] = molecular target: human CD33 P19D (human, UniProt P20138 18-364); experiment: flow cytometry, transfected cells
[29] = molecular target: human CD33 P46Y (human, UniProt P20138 18-364); experiment: flow cytometry, transfected cells
[30] = molecular target: human CD33 N20W (human, UniProt P20138 18-364); experiment: flow cytometry, transfected cells
[31] = molecular target: human CD33 N20Q (human, UniProt P20138 18-364); experiment: flow cytometry, transfected cells
[32] = molecular target: human CD33 N20P (human, UniProt P20138 18-364); experiment: flow cytometry, transfected cells
[33] = molecular target: human CD33 N20Y (human, UniProt P20138 18-364); experiment: flow cytometry, transfected cells
[34] = molecular target: human CD33 P46D (human, UniProt P20138 18-364); experiment: flow cytometry, transfected cells
Target sequence in this assay (P20138 18-364 P46D limits assumed): as the sequence (P20138 18-364 P48H limits assumed) above, with P29D, H31P counted along it

[35] = molecular target: human CD33 N20T (human, UniProt P20138 18-364); experiment: flow cytometry, transfected cells
[36] = molecular target: human CD33 N20K (human, UniProt P20138 18-364); experiment: flow cytometry, transfected cells
[37] = molecular target: human CD33 F21I (human, UniProt P20138 18-364); experiment: flow cytometry, transfected cells
[38] = molecular target: human CD33 F21S (human, UniProt P20138 18-364); experiment: flow cytometry, transfected cells
[39] = molecular target: human CD33 N20V (human, UniProt P20138 18-364); experiment: flow cytometry, transfected cells
[40] = molecular target: human CD33 N20G (human, UniProt P20138 18-364); experiment: flow cytometry, transfected cells

Row | Binder | Mean % WT Binding [1] | Mean % WT Binding [2] | Mean % WT Binding [3] | Mean % WT Binding [4] | Mean % WT Binding [5] | Mean % WT Binding [6] | Mean % WT Binding [7] | Mean % WT Binding [8] | Mean % WT Binding [9] | Mean % WT Binding [10] | Mean % WT Binding [11] | binding result [12] | binding result [13] | binding result [14] | binding result [15] | binding result [16] | binding result [17] | binding result [18] | binding result [19] | binding result [20] | other results
1 | B1 | 7.4 % WT binding | 47 % WT binding | 117 % WT binding | 87.2 % WT binding | 76 % WT binding | 13.9 % WT binding | 0.5 % WT binding | 89.1 % WT binding | 2.1 % WT binding | 109 % WT binding | 0.8 % WT binding |  |  |  |  |  |  |  |  |  | 
2 | B2 | 94.4 % WT binding | 96.9 % WT binding | 91.3 % WT binding | 107 % WT binding | 104 % WT binding | 9.3 % WT binding | 121 % WT binding | 122 % WT binding | 111 % WT binding | 104 % WT binding | 97.9 % WT binding |  |  |  |  |  |  |  |  |  | 
3 | B3 |  |  |  |  |  |  |  |  |  |  |  | no binding (tested: below 20%) | no binding (tested: below 20%) | no binding (tested: below 20%) | no binding (tested: below 20%) | no binding (tested: below 20%) | no binding (tested: below 20%) | no binding (tested: below 20%) | no binding (tested: below 20%) | no binding (tested: below 20%) | binding result [21]: no binding (tested: below 20%); binding result [22]: no binding (tested: below 20%); binding result [23]: no binding (tested: below 20%); binding result [24]: no binding (tested: below 20%); binding result [25]: no binding (tested: below 20%)
4 | B4 |  |  |  |  |  |  |  |  |  |  |  |  |  |  |  |  |  |  |  |  | binding result [26]: no binding (tested: below 20%); binding result [27]: no binding (tested: below 20%)
5 | B5 |  |  |  |  |  |  |  |  |  |  |  |  |  |  |  |  |  |  |  |  | binding result [28]: no binding (tested: below 20%); binding result [29]: no binding (tested: below 20%); binding result [30]: no binding (tested: below 20%); binding result [31]: no binding (tested: below 20%); binding result [32]: no binding (tested: below 20%); binding result [33]: no binding (tested: below 20%); binding result [34]: no binding (tested: below 20%); binding result [35]: no binding (tested: below 20%); binding result [36]: no binding (tested: below 20%); binding result [37]: no binding (tested: below 20%); binding result [38]: no binding (tested: below 20%); binding result [39]: no binding (tested: below 20%); binding result [40]: no binding (tested: below 20%)
6 | B6 |  |  |  |  |  |  |  |  |  |  |  | no binding (tested: below 20%) | no binding (tested: below 20%) | no binding (tested: below 20%) | no binding (tested: below 20%) | no binding (tested: below 20%) | no binding (tested: below 20%) | no binding (tested: below 20%) | no binding (tested: below 20%) | no binding (tested: below 20%) | binding result [21]: no binding (tested: below 20%); binding result [22]: no binding (tested: below 20%); binding result [23]: no binding (tested: below 20%); binding result [24]: no binding (tested: below 20%); binding result [25]: no binding (tested: below 20%)
